Reference: publication PMC11864173 (Science Advances, 2025)

Target: AaRseP(WT)-His8 (Aquifex aeolicus RseP, wild type) (Aquifex aeolicus, UniProt O67776)
Assay: cryo-EM structure

B1: 4A9 Fab (Fab of the anti-AaRseP mouse monoclonal antibody 4A9), with PA tag (Fab, V domains shown)
VH: EVKLVESGGGLVQPGGSLRLSCVTSGFTFTDYYMSWVRQPPGKALEWLAFIRNKVNGYTTEYRASVKGRFTISRDSSQSILYLQVNTLRAEDSATYYCARDRGGNGVYFDYWGQGTTLTVSS
VL: DIVMTQSHKFMSTSVGDRVSITCKASQDVGTDVAWYQQKPGQSPKLLIYWASIRHTGVPDRFTGSGSGTDFTLTISNVQSEDLADYFCQQYSSYPLTFGAGTKLELE
B1: binds.
